Assay results from US20190367620A1 (Merck KGaA, published 2019).
Numbering of substitutions follows the chain as printed.

B1: mAb #A02 IgG1 (antibody, V domains shown)
VH: QVQLQESGPGLVKPSGTLSLTCAVSGGSISSNNWWSWVRQPPGKGLEWIGEIYHSGSTSYNPSLKSRVTISVDKSKNQFSLKLSSVTAADTAVYYCARATDWFDLWGQGTLVTVSS
VL: SYVLTQPPSVSVAPGQTARITCGGNNIGSESVHWYQQKPGQAPVLVVYDDSDRPSGIPERFSGSNSGNTATLTISRVEAGDEADYYCQVWDSTSDHRVFGGGTKLTVL
notes: constant regions not tied
B2: mAb #C01 IgG1 (antibody, V domains shown)
VH: B1 VH with L105A
VL: B1 VL
notes: constant regions not tied
B3: A05 SEEDbody (monovalent) (antibody, V domains shown)
VH: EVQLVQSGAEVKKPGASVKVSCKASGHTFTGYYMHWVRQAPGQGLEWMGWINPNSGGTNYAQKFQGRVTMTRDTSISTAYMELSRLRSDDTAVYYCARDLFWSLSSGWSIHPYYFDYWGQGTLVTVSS
VL: QSALTQPASVSGSPGQSITISCTGTSSDVGSYNLVSWYQQHPGKAPKLMIYGGSKRPSGVPDRFSGSKSGNTASLTISGLQAEDEADYYCSSYTYSGDVFGTGTKVTVL
B4: #A02 SEEDbody (monovalent) (antibody)
heavy: QVQLQESGPGLVKPSGTLSLTCAVSGGSISSNNWWSWVRQPPGKGLEWIGEIYHSGSTSYNPSLKSRVTISVDKSKNQFSLKLSSVTAADTAVYYCARATDWFDLWGQGTLVTVSSASTKGPSVFPLAPSSKSTSGGTAALGCLVKDYFPEPVTVSWNSGALTSGVHTFPAVLQSSGLYSLSSVVTVPSSSLGTQTYICNVNHKPSNTKVDKRVEPKSCDKTHTCPPCPAPELLGGPSVFLFPPKPKDTLMISRTPEVTCVVVDVSHEDPEVKFNWYVDGVEVHNAKTKPREEQYNSTYRVVSVLTVLHQDWLNGKEYKCKVSNKALPAPIEKTISKAKGQPFRPEVHLLPPSREEMTKNQVSLTCLARGFYPKDIAVEWESNGQPENNYKTTPSRQEPSQGTTTFAVTSKLTVDKSRWQQGNVFSCSVMHEALHNHYTQKTISLSPG
chain: EPKSSDKTHTCPPCPAPELLGGPSVFLFPPKPKDTLMISRTPEVTCVVVDVSHEDPEVKFNWYVDGVEVHNAKTKPREEQYNSTYRVVSVLTVLHQDWLNGKEYKCKVSNKALPAPIEKTISKAKGQPREPQVYTLPPPSEELALNELVTLTCLVKGFYPSDIAVEWLQGSQELPREKYLTWAPVLDSDGSFFLYSILRVAAEDWKKGDTFSCSVMHEALHNHYTQKSLDRSPG
light: SYVLTQPPSVSVAPGQTARITCGGNNIGSESVHWYQQKPGQAPVLVVYDDSDRPSGIPERFSGSNSGNTATLTISRVEAGDEADYYCQVWDSTSDHRVFGGGTKLTVLGQPKAAPSVTLFPPSSEELQANKATLVCLISDFYPGAVTVAWKADSSPVKAGVETTTPSKQSNNKYAASSYLSLTPEQWKSHKSYSCQVTHEGSTVEKTVAPTECS
notes: also called #A02-SEED(AG)
B5: #B10 SEEDbody (monovalent) (antibody)
heavy: B4 heavy with F103Y, L105P
chain: B4 chain
light: B4 light
notes: also called #B10-SEED(AG)
B6: #C01 SEEDbody (monovalent) (antibody)
heavy: B4 heavy with L105A
chain: B4 chain
light: B4 light
notes: also called #C01-SEED(AG)
B7: #D01 SEEDbody (monovalent) (antibody)
heavy: B4 heavy with L105H
chain: B4 chain
light: B4 light
notes: also called #D01-SEED(AG)
B8: #D02 SEEDbody (monovalent) (antibody)
heavy: B4 heavy with A99G, F103I, L105T
chain: B4 chain
light: B4 light
notes: also called #D02-SEED(AG)
B9: #G04 SEEDbody (monovalent) (antibody)
heavy: B4 heavy with A99G, F103Y
chain: B4 chain
light: B4 light
notes: also called #G04-SEED(AG)
B10: SEEDbody #A07 (monovalent) (antibody)
heavy: B4 heavy with A99G, F103Y, L105P
chain: B4 chain
light: B4 light
notes: also called #A07-SEED(AG)
B11: monovalent SEEDbody #A08 (antibody)
heavy: B4 heavy with Q1E, A99G, L105P
chain: B4 chain
light: B4 light
notes: One-armed SEEDbody: full SEED(AG) heavy chain, partial hinge-CH2-CH3 SEED(GA) chain, lambda light chain; produced in CHO-LF cells (afucosylated); also called anti-FGFR1 SEEDbody; #A08 SEEDbody
B12: #A07 IgG1 (antibody, V domains shown)
VH: B1 VH with A99G, F103Y, L105P
VL: SYVLTQPPSVSVAPGQTARITCGGNNIGSESVHWYQQKPGQAPVLVVYDDSDRPSGIPERFSGSNSGNTATLTISRVEAGDEADYYCQVWDSTSDHRVFGGGTKLTVLG
notes: heavy constant region not tied
B13: #B10 IgG1 (antibody, V domains shown)
VH: B1 VH with F103Y, L105P
VL: B12 VL
notes: as for B12
B14: mAb #D01 IgG1 (antibody, V domains shown)
VH: B1 VH with L105H
VL: B12 VL
notes: as for B12

Legend:
[1] = biological target: T1, human FGFR1b-IIIc extracellular domain with a HIS tag (human, UniProt P11362 22-376); test: ELISA, EC50 from OD450 curves, IgG1 format
T1 construct: also called huFGFR1b-IIIc; hFGFR1b-IIIc
T1 sequence: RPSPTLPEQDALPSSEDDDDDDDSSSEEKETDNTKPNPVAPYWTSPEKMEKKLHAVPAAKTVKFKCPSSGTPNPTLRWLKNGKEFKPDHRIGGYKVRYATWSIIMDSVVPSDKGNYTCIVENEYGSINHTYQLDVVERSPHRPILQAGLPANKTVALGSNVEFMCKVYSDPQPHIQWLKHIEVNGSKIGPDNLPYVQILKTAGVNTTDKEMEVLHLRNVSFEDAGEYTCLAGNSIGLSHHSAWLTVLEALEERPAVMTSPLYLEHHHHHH
Description: (§1) The binding selectivity of the antibodies were tested by ELISA against the different FGFR family members: FGFR1, FGFR2, FGFR3 and FGFR4. Briefly plates were coated overnight with the different His6-tagged FGFR proteins, after blocking with 1% Bovine Serum albumin, 1 or 0.1 μg/ml of anti-FGFR1 antibodies were incubated for 1 h at room temperature. After washing, the bound antibodies were incubated for 1 h at room temperature with a peroxidase affiniPure F(ab′)2 Fragment goat anti-human Fc (Jackson ImmunoResearch Laboratories #109-036-098) and detection was performed using the TMB HRP Substrate solution (BioFx Lab # TMBW-1000-01).
The antibody #A08 both as an IgG1 (bivalent) and as a SEEDbody (monovalent), was affinity matured using the yeast display technology described in (Rhiel et al. 2014) and performing light chain shuffling from immunized OmniRats and naïve human library followed by CDR-H3 parsimonious mutagenesis. Following several sorting rounds, yeast clones were picked, unique clones were reformatted as described in Examples 1.6 and 3.1. The binding affinities of the anti-FGFR1 molecules against human FGFR1b-IIIb) and human FGFR1b-IIIc) were measured by ELISA using a similar protocol as described in Example 1.9. The OD450 was plotted against the antibody concentration and GraphPad Prism software was used to calculate EC₅₀ values (see FIG. 10). […]

[2] = biological target: T2, human FGFR1b-IIIb extracellular domain with a HIS tag (human); test: SPR (BIAcore), IgG1 format; target IIIb by paragraph 74 and paragraph 125, the table's title says IIIc
T2 construct: also called huFGFR1b-IIIb; hFGFR1b-IIIb
T2 chain: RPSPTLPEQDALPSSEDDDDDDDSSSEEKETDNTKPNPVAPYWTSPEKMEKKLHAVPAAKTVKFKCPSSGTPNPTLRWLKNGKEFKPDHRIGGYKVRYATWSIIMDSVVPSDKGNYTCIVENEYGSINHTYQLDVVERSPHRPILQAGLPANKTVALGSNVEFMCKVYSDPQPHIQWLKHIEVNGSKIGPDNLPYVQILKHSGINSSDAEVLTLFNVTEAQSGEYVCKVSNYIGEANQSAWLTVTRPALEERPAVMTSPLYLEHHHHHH
Description: (§2) Binding affinities of anti-FGFR1 antibodies to FGFR1 were measured by Surface Plasmon Resonance (SPR) using a GE Healthcare BIAcore 4000 instrument as follows. Goat anti-human Fc antibody (Jackson ImmunoResearch Laboratories #109-005-098) was first immobilized on BIAcore carboxymethylated dextran CM5 chip using direct coupling to free amino groups following the procedure described by the manufacturer. Antibodies were then captured on the CM5 biosensor chip to achieve approximately 200 response units (RU). Binding measurements were performed using the running HBS-EP+ buffer. A 2-fold dilution series of His-tagged FGFR1 proteins were injected at a flow rate of 30 μl/min at 25° C. Association rates (kₒₙ, per mol/s) and dissociation rates (koff, per s) were calculated using a simple 1:1 Langmuir binding model (Biacore 4000 Evaluation Software). The equilibrium dissociation constant (KD, mol) was calculated as the ratio of koff/kₒₙ.
(§3) The affinities to human FGFR1b-IIIb for the affinity matured clones reformatted as IgG and monovalent SEEDbodies were measured by BIAcore (using a protocol similar to the one described in Example 1.8) and compared to those of mAb #08 (Table 5).

FGFR1 on NCI-H520 cells = FGFR1 on NCI-H520 cells (human, UniProt P11362 22-822); test: cell-based or functional assay
FGFR1 on NCI-H520 cells, sequence (P11362 22-822): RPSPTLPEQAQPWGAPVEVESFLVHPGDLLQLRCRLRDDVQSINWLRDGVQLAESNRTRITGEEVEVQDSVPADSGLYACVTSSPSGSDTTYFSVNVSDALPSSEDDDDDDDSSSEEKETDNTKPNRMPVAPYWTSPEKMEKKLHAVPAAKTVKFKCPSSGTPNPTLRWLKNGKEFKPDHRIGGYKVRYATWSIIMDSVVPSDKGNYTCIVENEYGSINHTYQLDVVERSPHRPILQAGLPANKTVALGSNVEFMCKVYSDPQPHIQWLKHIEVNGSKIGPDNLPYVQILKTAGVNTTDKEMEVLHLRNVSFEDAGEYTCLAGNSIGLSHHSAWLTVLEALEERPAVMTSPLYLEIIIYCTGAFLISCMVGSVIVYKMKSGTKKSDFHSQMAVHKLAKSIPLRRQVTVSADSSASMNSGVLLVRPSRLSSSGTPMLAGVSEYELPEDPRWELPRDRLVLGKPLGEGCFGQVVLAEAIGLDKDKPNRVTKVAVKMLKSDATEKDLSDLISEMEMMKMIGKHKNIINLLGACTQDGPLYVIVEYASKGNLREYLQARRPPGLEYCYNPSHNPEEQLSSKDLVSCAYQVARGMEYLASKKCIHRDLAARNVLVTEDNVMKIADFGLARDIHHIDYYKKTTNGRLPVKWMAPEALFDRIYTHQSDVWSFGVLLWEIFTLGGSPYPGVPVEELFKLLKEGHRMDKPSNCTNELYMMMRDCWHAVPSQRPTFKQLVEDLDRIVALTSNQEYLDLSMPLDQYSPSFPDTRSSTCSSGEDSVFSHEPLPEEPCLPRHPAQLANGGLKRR

[3] = biological target: T1, human FGFR1b-IIIc extracellular domain …; test: ELISA, EC50 from OD450 curves, monovalent SEEDbody format
Description: as §1
(§4) The antibody #A08 both as an IgG1 (bivalent) and as a SEEDbody (monovalent), was affinity matured using the yeast display technology described in (Rhiel et al. 2014) and performing light chain shuffling from immunized OmniRats and naïve human library followed by CDR-H3 parsimonious mutagenesis. Following several sorting rounds, yeast clones were picked, unique clones were reformatted as described in Examples 1.6 and 3.1. The binding affinities of the anti-FGFR1 molecules against human FGFR1b-IIIb) and human FGFR1b-IIIc) were measured by ELISA using a similar protocol as described in Example 1.9. The OD450 was plotted against the antibody concentration and GraphPad Prism software was used to calculate EC₅₀ values (see FIG. 10). […] The best results were obtained with mAb #A02 and #C01 showing an EC50 improvement in both IgG1 and SEEDbody formats.

[4] = biological target: T2, human FGFR1b-IIIb extracellular domain …; test: SPR (BIAcore), SEEDbody format; target IIIb by paragraph 74 and paragraph 125, the table's title says IIIc
Description: as §2, §3

[5] = biological target: T2, human FGFR1b-IIIb extracellular domain …; test: ELISA, EC50 from OD450 curves, monovalent SEEDbody format
Description: as §1, §4

Binder	Kd [2] [nM]	binding result [3]	Kd [4] [nM]	other results
B1	0.05			binding result [1]: binds
B2	0.03			binding result [1]: binds
B3				IC50, pFGFR1 inhibition in NCI-H520 cells, FGF1, SEEDbody (FGFR1 on NCI-H520 cells): > 1e-06 M; IC50, pFGFR1 inhibition in NCI-H520 cells, FGF2, SEEDbody (FGFR1 on NCI-H520 cells): 4e-07 M; IC50, pFGFR1 inhibition in NCI-H520 cells, non-stimulated, SEEDbody (FGFR1 on NCI-H520 cells): > 1e-06 M
B4		binds	0.06	
B5		binds	0.02	
B6		binds	0.04	
B7		binds	0.05	
B8		binds		binding result [5]: binds
B9		binds		binding result [5]: binds
B10		binds	0.04	
B11			0.08	IC50, pFGFR1 inhibition in NCI-H520 cells, FGF1, SEEDbody (FGFR1 on NCI-H520 cells): 7e-08 M; IC50, pFGFR1 inhibition in NCI-H520 cells, FGF2, SEEDbody (FGFR1 on NCI-H520 cells): 6e-09 M; IC50, pFGFR1 inhibition in NCI-H520 cells, non-stimulated, SEEDbody (FGFR1 on NCI-H520 cells): 2e-08 M
B12	0.06			
B13	0.02			
B14	0.03			
